According to publication PMC6925385, “Dual role of a GTPase conformational switch for membrane fusion by mitofusin ubiquitylation” (Life Science Alliance, 2019):

Biological target: the molecule itself
Test: sucrose gradient centrifugation; crude mitochondrial extracts solubilized with 1% digitonin at low protein density (pellet in 500 μl, 10× less dense); 5-25% sucrose gradient, 14-16 h at 4°C; fractions blotted for HA

B1: HA-tagged Fzo1 (yeast mitofusin), wild type (natural protein, yeast (strains isogenic to S288c), UniProt P38297 1-855, looked up)
chain: MSEGKQQFKDSNKPHKDSTDQDDDAATIVPQTLTYSRNEGHFLGSNFHGVTDDRTTLFDGEEGRREDDLLPSLRSSNSKAHLISSQLSQWNYNNNRVLLKRSILKTQAFMDQLQEENNIRPIFIAANDEREKLHVLQLNIKLDGQYNTKEKNGFNIEKKALSKLFHSQIVSVTNHLNALKKRVDDVSSKVFITGDVNTGKSALCNSLLKQRLLPEDQLPCTNVFSEILEARENDGIEEVHAIPLNIAPTLKEAIDMYSIQNPKTYEIHTLKELPDLVPQNGKYALLKIYIKDDKRPASTSLLRNGTVDISLIDSPGLNMDSLQTAEVMSRQEEIDLVIFVVNAENQLTLSAKEFISLASREKKLMFFVVKKFDKIRDKQRCKELILKQIRDLSPETYKRAADFVHFVSKNGDELPHYHNENDNEDHGDRKPDDDPYSSSDPDPDFDSLEDSLRNFVLKKRSLSKLLPAKTYLSKLLSDIIMISKSNMKMYSEEEIKINEQLETLRPEILSARAKCNDLTTSVDQMAEQTITMTYNNTKEALLNALDVPLHEYPKYQGLGQIYDFIFSTEAFIANQIDESIGSSELFAKQKTDLLVKKIYEIGKNELGDDFMCERVFRSELMFRKRKHLIGKRLKVSLSITDLFAPTWKGFLSYLSWQKPVTAPLPDIEGQTNEGQIGLMKYLGLKNYPLTQYWSRPSLLFTSKIPTLTLYFLGSTKVVGNIILNGIKLSSWSSLKKLSVPVIVVGSLLGLTYLIHDLPRALPMNLSIKYKRKLQELDYIHLNAQRTSNEVRDVLRVPTREILRSCEIIMDKKQITKKELENKKESNLLSIKFFQSLYEGTVAQKLMVEEINLDID
modifications: unmodified and ubiquitylated forms both present; K48-linked ubiquitin chains conjugated to lysine 398
notes: Fzo1, the yeast mitofusin (large dynamin-related GTPase of the mitochondrial outer membrane); The immunoprecipitate holds a mix of unmodified and ubiquitylated Fzo1; also called HA-Fzo1; wt Fzo1; source: yeast (isogenic to S288c), genomically HA-tagged or expressed from the centromeric plasmid pRS316 in Δfzo1 cells; in solubilized crude mitochondrial extracts
- stoichiometry N: 2
